The values that follow are results of earlier work, collected in PMC8391295.

This data set deals with CD4 (Homo sapiens) (UniProt P01730).

Chain of Prolactin-inducible protein (P12273 29-146): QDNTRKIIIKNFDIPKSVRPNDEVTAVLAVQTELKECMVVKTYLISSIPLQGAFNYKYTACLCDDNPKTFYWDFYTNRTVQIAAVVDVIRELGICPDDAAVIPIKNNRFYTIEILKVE

As for “Prolactin-inducible protein (from UniProt P12273)”, the Kd (usually a measure of binding affinity in units of concentration) was 6 nM.
